This is an account of results in PMC11796321.

Assay [1] addresses recombinant his-tagged soluble human IL-6R (human) (UniProt P08887). The experiment in a line: SPR; Biacore X100, multi-cycle, NTA sensor chip; his-tagged soluble hIL-6R or hIL-11R immobilised (100-250 RU per cycle); cytokines injected 133.33 to 0.183 nM, 30 uL/min, 180 s, dissociation 800 s; 25 °C, PBS with 0.05% P20 and 50 uM EDTA; two-state reaction fit.
The target of assay [2] is recombinant his-tagged soluble human IL-11R (human) (UniProt Q14626). The description is as above.
recombinant his-tagged soluble human IL-11R (human), sequence (Q14626 24-370): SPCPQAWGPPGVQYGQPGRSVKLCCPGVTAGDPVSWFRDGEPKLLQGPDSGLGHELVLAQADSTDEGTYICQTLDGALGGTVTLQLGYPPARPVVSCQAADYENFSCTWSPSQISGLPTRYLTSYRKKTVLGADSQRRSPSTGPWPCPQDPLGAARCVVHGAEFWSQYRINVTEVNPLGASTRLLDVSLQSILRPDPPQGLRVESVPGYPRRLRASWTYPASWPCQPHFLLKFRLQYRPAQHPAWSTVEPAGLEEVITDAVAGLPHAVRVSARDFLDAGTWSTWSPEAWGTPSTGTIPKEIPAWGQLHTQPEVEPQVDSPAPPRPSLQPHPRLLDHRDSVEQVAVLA

chimeric cytokine IC7, Twin-Strep-tagged (IC7ts), sequence (P05231 30-212, change not shown): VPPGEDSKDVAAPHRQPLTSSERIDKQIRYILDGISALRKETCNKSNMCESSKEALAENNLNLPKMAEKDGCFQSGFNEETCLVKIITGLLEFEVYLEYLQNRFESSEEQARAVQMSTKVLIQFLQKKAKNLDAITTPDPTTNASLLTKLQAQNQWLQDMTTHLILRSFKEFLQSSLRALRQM
recombinant his-tagged soluble human IL-6R (human), sequence (P08887 20-365): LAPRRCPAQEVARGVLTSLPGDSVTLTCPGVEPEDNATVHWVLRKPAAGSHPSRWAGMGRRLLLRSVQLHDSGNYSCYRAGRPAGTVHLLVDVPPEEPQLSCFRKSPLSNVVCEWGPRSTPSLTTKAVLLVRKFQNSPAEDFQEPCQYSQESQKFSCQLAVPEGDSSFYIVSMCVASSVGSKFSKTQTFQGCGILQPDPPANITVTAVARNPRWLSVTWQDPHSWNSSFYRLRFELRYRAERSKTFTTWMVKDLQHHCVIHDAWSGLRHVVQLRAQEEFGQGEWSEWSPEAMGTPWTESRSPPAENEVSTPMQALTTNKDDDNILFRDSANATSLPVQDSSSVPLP

Take “chimeric cytokine IC7, Twin-Strep-tagged (IC7ts) (from UniProt P05231 30-212) (ligand)”: in assay [1], the Kd came to 6.38 nM; the ka1 (two-state fit, first step) was found to be 92200 M⁻¹ s⁻¹; the ka2 (two-state fit, second step) turned out to be 0.00751 s⁻¹; the kd1 (two-state fit, first step) worked out at 0.00932 s⁻¹. The kd2 (two-state fit, second step) in assay [1] was determined as 0.000506 s⁻¹. Moreover, in assay [2], the Kd was determined as 48.1 nM; the ka1 (two-state fit, first step) came to 59900 M⁻¹ s⁻¹; the ka2 (two-state fit, second step) was 0.0104 s⁻¹; the kd1 (two-state fit, first step) amounted to 0.0193 s⁻¹. Moreover, the kd2 (two-state fit, second step) in assay [2] turned out to be 0.00183 s⁻¹.
